In publication PMC9829174 one finds K half data, which are given here for one substance.

This data set concerns His6MBP-MP (TMV movement protein, 30 kDa) (Tobacco mosaic virus). Briefly: EMSA. The following applies: 20 mM Tris-HCl pH 7.5, 35 mM KCl, 3.5 mM MgCl2, 5 U RNaseOUT, 10 ul, 30 min at 4 C; 6% native PAGE at 4 C, RNA blot detection; ssDNA/dsDNA competitors were ….

On to PSTVd WT full-length transcript, folded, for which the K half stood at 36 nM.
